In patent US20260000780A1, “B-LYMPHOCYTE SPECIFIC AMATOXIN ANTIBODY CONJUGATES” (priority 2021, published 2026):

Assays:
[1] = system: Nalm-6 cell line (CD37-negative); assay: FACS binding / antibodies bound per cell (BD Quantibrite PE), Nalm-6; set-up: species or system human
Method: (§1) Binding of the anti-CD37 monoclonal antibody chHH1-HDP-LALA-D265C to the CD37-positive B-cell leukemia (B-CLL) cell lines MEC-1 and MEC-2 as well as to the human Burkitt lymphoma cell lines Raji and Ramos and to the human B-cell precursor leukemia cell line Nalm-6, which is known to be CD37-negative, were tested by fluorescence-activated cell sorting (FACS) analysis.
(§2) In order to estimate antibodies bound per cell (ABC) by flow cytometry, BD Quantibrite PE tubes (Becton Dickinson) were used, which were run at the same instrument settings as the assay, so that the FL2 axis can be converted into the number of PE molecules bound per cell. By using known ratios of PE to antibodies, PE molecules per cell can then be converted to the number of antibodies per cell (Iyer et al. 1997).

[2] = system: Raji cell line (CD37-positive); assay: FACS binding / antibodies bound per cell (BD Quantibrite PE), Raji; set-up: species or system human
Method: as §1, §2

[3] = system: MEC-1 cell line (CD37-positive); assay: FACS binding / antibodies bound per cell (BD Quantibrite PE), MEC-1
Method: as §1, §2

[4] = system: Ramos cell line (CD37-positive); assay: FACS binding / antibodies bound per cell (BD Quantibrite PE), Ramos; set-up: species or system human
Method: as §1, §2

Raji-Luc tumor xenograft = assay: Disseminated Raji-Luc tumor xenograft model; format: in vivo, CB17 Scid mice; details: 3.75 mg/kg (unconjugated antibody); day 89 after treatment
Method: Cytotoxic efficacy studies in vivo were performed using various anti-CD37 antibody amatoxin conjugates in a disseminated Raji-Luc tumor xenograft model over 89 days of treatment.
Tumor cell inoculation was done on day-3 by i.v. injection of 2.5×10^6 Raji-Luc cells in CB17 Scid mice. Treatment was performed on day 0 by single dose i.v. injection at maximum tolerable dose (MTD) of 1/16 and MTD of 1/64 doses of cynomolgus MTD, respectively. Readout of the study was body weight, bioluminescence and survival. Results are shown in FIG. 10 (body weight), FIG. 11 (bioluminescence) and FIG. 12 (survival) at day 89 after treatment. All groups treated with conjugate gained body weight as normal, in contrast to the control group.

[5] = system: MEC-2 cell line (CD37-positive); assay: FACS binding / antibodies bound per cell (BD Quantibrite PE), MEC-2
Method: as §1, §2

cynomolgus CD37 = assay: Cross reactivity with cynomolgus PBMCs by flow cytometry; format: binding
Method: Cross reactivity of the anti-CD37 chHH1-HDP-LALA-D265C with cynomolgus peripheral blood mononuclear cells (PBMCs) was assessed by flow cytometry. As control, human PBMCs were stained using the same set of antibodies. FACS analysis was done according to a standard protocol. In brief: PBMCs were resuspend in 300 μL staining medium (3.3×10^5 cells/50 μl staining medium). 50 μl cell suspension for each sample (=3.3×10^5 cells per sample) were piptted into one well of an U-well plate. 50 μl of pre-diluted isotype and antibody solutions were added to the samples in each well and incubated for 30 min on ice, followed by the addition of 100 μl ice-cold PBS and centrifugation at 4° C., 300 g, 6 min. The resulting supernatant was discarded and cells were washed with 200 μl ice-cold PBS, pH 7.4 followed by centrifugation at 4° C., 300 g, 6 min. The wash step was repeated once. The supernatant was discarded and cells resuspended in 100 μl of the secondary antibody solution. For the untreated sample (control) 100 μl staining medium were used. Cells were incubated for 30 min on ice protected from light. 100 μl ice-cold PBS were added and cells were centrifuge at 4° C., 300 g, 6 min. The supernatant was discarded and cells were washed twice with 200 μl ice-cold PBS, pH 7.4 and centrifuged at 4° C., 300 g, 6 min. […]

CD37 = target: T1, CD37 (Homo sapiens, UniProt P11049); assay: Biacore binding assay (surface-plasmon resonance); details: CD37 construct Ala 113 to Asn 240 with Fc fusion tag, 31.25 nM to 500 nM
T1 construct: A CD37 construct comprising amino acids Ala 113 to Asn 240, expressed in HEK293 cells; Fc fusion tag (Thr 106 to Lys 330); host or cells: HEK293
T1 sequence (P11049 113-240): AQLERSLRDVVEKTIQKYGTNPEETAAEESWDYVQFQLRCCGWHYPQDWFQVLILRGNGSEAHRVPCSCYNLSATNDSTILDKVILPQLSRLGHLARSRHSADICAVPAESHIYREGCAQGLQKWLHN
Method: Binding of the monoclonal antibody chHH1-HDP-LALA-D265C to CD37 was confirmed by surface-plasmon resonance (Biacore) interaction analysis. 0.1 μM chHH1-HDP-LALA-D265C was captured using anti-Fab capture (FAB2G) biosensors. Alternatively, biotinylated monoclonal antibody chHH1-HDP-LALA-D265C was captured by streptavidin (SA) sensors. A CD37 construct comprising amino acids Ala 113 to Asn 240, expressed in HEK293 cells with an Fc fusion tag moiety (Thr 106 to Lys 330), was added to the sensor at concentrations of 31.25 nM to 500 nM (1:2 dilution steps), and binding of the CD37 construct was assessed.

B1: chHH1-HDP-LALA-D265C: Unconjugated anti-CD37 antibody, heavy chain SEQ ID No. 11 (234Ala, 235Ala, 265Cys), light chain SEQ ID No. 12 (antibody)
heavy: EIQLQQSGPELVKPGASVKVSCKASGYSFTDYNMYWVKQSHGKSLEWIGYIDPYNGDTTYNQKFKGKATLTVDKSSSTAFIHLNSLTSEDSAVYYCARSPYGHYAMDYWGQGTSVTVSSASTKGPSVFPLAPSSKSTSGGTAALGCLVKDYFPEPVTVSWNSGALTSGVHTFPAVLQSSGLYSLSSVVTVPSSSLGTQTYICNVNHKPSNTKVDKKVEPKSCDKTHTCPPCPAPEAAGGPSVFLFPPKPKDTLMISRTPEVTCVVVCVSHEDPEVKFNWYVDGVEVHNAKTKPREEQYNSTYRVVSVLTVLHQDWLNGKEYKCKVSNKALPAPIEKTISKAKGQPREPQVYTLPPSREEMTKNQVSLTCLVKGFYPSDIAVEWESNGQPENNYKTTPPVLDSDGSFFLYSKLTVDKSRWQQGNVFSCSVMHEALHNHYTQKSLSLSPGK
light: DIVMTQSHKLLSTSVGDRVSITCKASQDVSTAVDWYQQKPGQSPKLLINWASTRHTGVPDRFTGSGSGTDYTLTISSMQAEDLALYYCRQHYSTPFTFGSGTKLEIKRTVAAPSVFIFPPSDEQLKSGTASVVCLLNNFYPREAKVQWKVDNALQSGNSQESVTEQDSKDSTYSLSSTLTLSKADYEKHKVYACEVTHQGLSSPVTKSFNRGEC
modifications: Heavy chain of chHH1-HDP-LALA-D265C comprising amino acid substitutions L235A, L235A and D265C; Light chain of chHH1-HDP, chHH1-HDP-265C, chHH1-HDP-LALA-D265C, respectively
[1]; Nalm-6 (CD37-negative)
  binding by FACS analysis: No binding was detected
[1]; Nalm-6, flow cytometry
  antibodies bound per cell (ABC) value: 42
[2]
  binding by FACS analysis: bind strongly
[2]; flow cytometry
  antibodies bound per cell (ABC) value: 32,500
[3]
  binding by FACS analysis: bind strongly
[3]; flow cytometry
  antibodies bound per cell (ABC) value: 33,004
[4]
  binding by FACS analysis: bind strongly
[4]; flow cytometry
  antibodies bound per cell (ABC) value: 31,500
Raji-Luc tumor xenograft
  Alive animals: 0/10
[5]
  binding by FACS analysis: bind strongly
[5]; flow cytometry
  antibodies bound per cell (ABC) value: 137,200
Cynomolgus CD37
  specific binding to cynomolgus CD37: does not exhibit specific binding
CD37
  binding to CD37 by surface-plasmon resonance (Biacore): confirmed
